Patent EP4768503A1 (Keymed Biosciences (Chengdu) Co., Ltd., dated 2026)
Positions count from the first letter of the chain named. Where no end group is shown, it is not given here. [ ]: non-standard residue; d: D form. pGlu = O=C1CC[C@@H](C(=O)O)N1

How the values were obtained:
[1] = target: T1, pyroE Aβ3-16-biotin polypeptide (human, also: biotin, position not given here); assay: SPR (Biacore T200), biotinylated peptide on SA chip, antibody as analyte; antigen channel not given
T1 peptide: [pGlu]FRHDSGYEVHHQK

[2] = target: T2, Aβ1-42 protofibril (human); assay: SPR (Biacore T200), protofibril on CM5 chip, antibody as analyte
T2 construct: also called amyloid protofibril
T2 sequence (peptide, as listed by the source): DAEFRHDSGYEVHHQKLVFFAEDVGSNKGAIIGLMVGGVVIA

[3] = target: T3, pyroE Aβ3-42 peptide (human, pyroglutamate derived from glutamic acid at the third amino acid position of Aβ (N-terminus of the peptide)); assay: graded binding, chimeric antibody (assay not named; ELISA in Example 1)
T3 construct: Synthetic peptide; It lacks the first two N-terminal residues of Aβ; also called pyroglutamate-modified β-amyloid
T3 sequence (peptide, as listed by the source): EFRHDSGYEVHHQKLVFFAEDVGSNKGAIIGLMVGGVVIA

B1: 151N5 H1K1 (antibody, V domains shown)
VH: EVQLVESGGGLVKPGGSLRLSCAASGFTFSDFYMYWVRQAPGKGLEWVATISDGGRYTYYPDRLKGRFTISRDIAKNSLYLQMNSLRAEDTAVYYCARGRSTMITTTRNYFALDYWGQGTLVTVSS
VL: DIQMTQSPSSLSASVGDRVTITCKASEDIYNRLAWYQQKPGKAPKLLISGATSLETGVPSRFSGSGSGKDYTLTISSLQPEDIATYYCQQYWRTPLTFGQGTKLEIK
notes: also called h151N5 H1 + h151N5 K1
B1 was tested, and the Kd [1] was 321 pM, the koff [1] was 0.0002 s⁻¹ and the kon [1] was 622000 M⁻¹ s⁻¹.

B2: 151N5 H1K2 (antibody, V domains shown)
VH: B1 VH
VL: B1 VL with I83V
notes: also called h151N5 H1 + h151N5 K2
Binder B2 has a Kd [1] of 319 pM, a koff [1] of 0.000207 s⁻¹ and a kon [1] of 648000 M⁻¹ s⁻¹.

B3: 7C8 H2K2 hIgG1 (antibody, V domains shown)
VH: QVTLKESGPALVKPTQTLTLTCTFSGFSLSTSGMGVSWIRQPPGKALEWLAHIYWDDDKRYNPSLKSRLTITKDTSKNQVVLTMTNMDPVDTATYYCARYGKGFAYWGQGTLVTVSS
VL: DIVMTQSPLSLPVTPGEPASISCRSSQSIVHSNGNTYLDWYLQKPGQSPQLLIYKVSNRFSGVPDRFSGSGSGTDFTLKISRVEAEDVGVYYCFQGSHVPLTFGQGTKLEIK
notes: also called h7C8 H2 + h7C8 K2
With B3 the Kd [2] was 2.76 nM, the koff [2] was 0.00293 s⁻¹ and the kon [2] was 1.06e+06 M⁻¹ s⁻¹.

B4: 7C8 H6K2 hIgG1 (antibody, V domains shown)
VH: QVQLQESGPGLVKPSETLSLTCTFSGFSISTSGMGVSWIRQPPGKGLEWIGHIYWDDDKRYNPSLKSRVTISKDTSKNQVSLKLSSVTAADTAVYYCARYGKGFAYWGQGTLVTVSS
VL: B3 VL
notes: also called h7C8 H6K2 hIgG1; h7C8 H6K2
Work on B4 yielded a Kd [2] of 2.8 nM, a koff [2] of 0.0041 s⁻¹ and a kon [2] of 1.46e+06 M⁻¹ s⁻¹.

B5: 7C8 H7K1 hIgG1 (antibody, V domains shown)
VH: B4 VH with F24V
VL: B3 VL with I2V, D39E, Q50K
notes: also called h7C8 H7 + h7C8 K1
B5 showed a Kd [2] of 1.93 nM, a koff [2] of 0.00466 s⁻¹ and a kon [2] of 2.42e+06 M⁻¹ s⁻¹.

B6: 7C8 H2K1 hIgG1 (antibody, V domains shown)
VH: B3 VH
VL: B3 VL with I2V, D39E, Q50K
notes: also called h7C8 H2 + h7C8 K1
With B6 the Kd [2] was 2.74 nM, the koff [2] was 0.0028 s⁻¹ and the kon [2] was 1.02e+06 M⁻¹ s⁻¹.

B7: 7C8 H7K2 hIgG1 (antibody, V domains shown)
VH: B4 VH with F24V
VL: B3 VL
notes: also called h7C8 H7 + h7C8 K2
B7 gave a Kd [2] of 2.33 nM, a koff [2] of 0.00415 s⁻¹ and a kon [2] of 1.78e+06 M⁻¹ s⁻¹.

B8: 7C8 H4K2 hIgG1 (antibody, V domains shown)
VH: B4 VH with I29L, I50L, G51A, K77R
VL: B3 VL
notes: also called h7C8 H4 + h7C8 K2
With B8 the Kd [2] was 3.08 nM, the koff [2] was 0.0037 s⁻¹ and the kon [2] was 1.2e+06 M⁻¹ s⁻¹.

B9: 7C8 H6K1 hIgG1 (antibody, V domains shown)
VH: B4 VH
VL: B3 VL with I2V, D39E, Q50K
notes: also called h7C8 H6 + h7C8 K1
B9 gave a Kd [2] of 2.63 nM, a koff [2] of 0.00472 s⁻¹ and a kon [2] of 1.79e+06 M⁻¹ s⁻¹.

B10: 7C8 H5K2 hIgG1 (antibody, V domains shown)
VH: B4 VH with I29L, G51A
VL: B3 VL
notes: also called h7C8 H5 + h7C8 K2
For B10, the Kd [2] was 2.95 nM, the koff [2] was 0.00395 s⁻¹ and the kon [2] was 1.34e+06 M⁻¹ s⁻¹.

B11: 6B5 H1K2 hIgG1 (antibody, V domains shown)
VH: QVQLVQSGAEVKKPGASVKVSCKASGYTFTTYWMHWVRQAPGQGLEWIGEIDPSDSYTNYNQKFKGRATLTVDKSSSTAYMELSSLRSEDTAVYYCARSFHGNFFVYWGQGTLVTVSS
VL: EIVLTQSPATLSLSPGERATLSCRASSSVSYMHWFQQKPGQAPRLLIYSTSNLATGIPARFSGSGSGTDYTLTISRLEPEDFAVYYCQQRSSYPLTFGQGTKLEIK
notes: also called h6B5 H1 + h6B5 K2
B11 gave a Kd [2] of 2.11 nM, a koff [2] of 0.00361 s⁻¹ and a kon [2] of 1.71e+06 M⁻¹ s⁻¹.

B12: 6B5 H1K5 hIgG1 (antibody, V domains shown)
VH: B11 VH
VL: DIQMTQSPSSLSASVGDRVTITCRASSSVSYMHWFQQKPGKAPKLLIYSTSNLASGVPSRFSGSGSGTDYTLTISSLQPEDFATYYCQQRSSYPLTFGQGTKLEIK
notes: also called h6B5 H1 + h6B5 K5
B12 gave a Kd [2] of 1.87 nM, a koff [2] of 0.00354 s⁻¹ and a kon [2] of 1.9e+06 M⁻¹ s⁻¹.

B13: 6B5 H1K1 hIgG1 (antibody, V domains shown)
VH: B11 VH
VL: B11 VL with L46W, T55S
notes: also called h6B5 H1 + h6B5 K1
B13 gave a Kd [2] of 1.7 nM, a koff [2] of 0.00255 s⁻¹ and a kon [2] of 1.49e+06 M⁻¹ s⁻¹.

B14: 6B5 H1K4 hIgG1 (antibody, V domains shown)
VH: B11 VH
VL: B12 VL with M4L, L46W
notes: also called h6B5 H1 + h6B5 K4
B14 showed a Kd [2] of 1.6 nM, a koff [2] of 0.00229 s⁻¹ and a kon [2] of 1.43e+06 M⁻¹ s⁻¹.

B15: 6B5 H1K3 hIgG1 (antibody, V domains shown)
VH: B11 VH
VL: B11 VL with N52S, L53R
notes: also called h6B5 H1 + h6B5 K3
With B15 the Kd [2] was 1.42 nM, the koff [2] was 0.00404 s⁻¹ and the kon [2] was 2.85e+06 M⁻¹ s⁻¹.

B16: 6B5 H1K6 hIgG1 (antibody, V domains shown)
VH: B11 VH
VL: B12 VL with N52S, A54Q
notes: also called h6B5 H1 + h6B5 K6
In the case of B16, the Kd [2] is reported as 1.64 nM, the koff [2] is reported as 0.00401 s⁻¹ and the kon [2] is reported as 2.44e+06 M⁻¹ s⁻¹.

B17: 171P1 (antibody, V domains shown)
VH: QVQLEQPGAVSVRPGASVKLSCKASGYTFTSYWINWVKQRPGQGLEWIGNIYPSDSYTHYNQKFKDKATLTVDKSSTTAYMQISSPTSEDSAVYYCTREGTVVYWGQGTLLTVSA
VL: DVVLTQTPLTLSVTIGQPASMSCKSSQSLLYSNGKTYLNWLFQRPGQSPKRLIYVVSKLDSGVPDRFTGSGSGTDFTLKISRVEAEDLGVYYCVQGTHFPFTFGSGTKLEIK
notes: Chimeric antibody; the constant region of the chimeric form is not specified
B17: binds [3].

B18: 178D4 (antibody, V domains shown)
VH: QVQLQQSGAELVKPGASVKLSCKASGYTFTSYDLNWVRQRPEQGLEWIGWTFPGDGRTKYNEKFKGKATLTTDKSSSTAYMHLSRLTSEDSAVYFCVRWDYYGRSTGYFDVWGAGTTVTVSS
VL: QIVLTQSPAIMSASLGERVTMTCTASSSVSSSYLHWYQQRPGSSPKLWIYGTSNLASGVPARFSGSGSGTSYSLTISSMEAEDAATYYCHQYHRSPLTFGAGTKLELK
notes: as for B17
B18: binds [3].

B19: 200O1 H1K1 (antibody, V domains shown)
VH: QVTLKESGPVLVKPTETLTLTCTVSGFSLSRYIVHWYRQPPGKALEWLAMIWGGGRIDYNSALKSRLTISKDNSKSQVVLTMTNMDPVDTATYYCARNFGENAEAYWGQGTLVTVSS
VL: DIQMTQSPSSLSASVGDRVTITCRASQDINIYLNWYQQKPGKVVKLLIYYTSRLHSGVPSRFSGSGSGTDFTLTISSLQPEDVATYFCQQGHTLPYTFGQGTKLEIK
notes: also called h200O1 H1K1 hIgG1; h200O1 H1K1
Binder B19 has a Kd [1] of 0.0011 pM and a kon [1] of 682000 M⁻¹ s⁻¹.

B20: 200O1 H5K1 (antibody, V domains shown)
VH: QVQLQESGPGLVKPSETLSLTCTVSGFSLSRYIVHWYRQPPGKGLEWIGMIWGGGRIDYNSALKSRVTISKDNSKSQVSLKLSSVTAADTAVYYCARNFGENAEAYWGQGTLVTVSS
VL: B19 VL
notes: also called h200O1 H5 + h200O1 K1
Work on B20 yielded a Kd [1] of 0.0736 pM, a koff [1] of 5.7e-08 s⁻¹ and a kon [1] of 776000 M⁻¹ s⁻¹.

B21: 200O1 H2K1 (antibody, V domains shown)
VH: B19 VH with N73T
VL: B19 VL
notes: also called h200O1 H2 + h200O1 K1
Binder B21 has a Kd [1] of 0.625 pM, a koff [1] of 2.38e-07 s⁻¹ and a kon [1] of 381000 M⁻¹ s⁻¹.

B22: 200O1 H6K1 (antibody, V domains shown)
VH: B20 VH with N73T, S76N
VL: B19 VL
notes: also called h200O1 H6 + h200O1 K1
B22 showed a Kd [1] of 0.61 pM, a koff [1] of 4.55e-07 s⁻¹ and a kon [1] of 747000 M⁻¹ s⁻¹.

B23: 175P19 (antibody, V domains shown)
VH: EVMLVESGRDLVKPGGSLRLSCAASGFTFSTYAMSWIRQTPEKRLEWVATITSAGTYTYYPDSVKGRFTISRDNAKNTLYLQMRSLRSEDTAMYYCVRHELITTVVSTDYFSMDYWGQGTSVTVSS
VL: DIVLTQSPASLAVSLGQRATISCRASESVEYYGTSLMQWYQQKPGQPPKLLIYAASNVESGVPARFSGSGSGTDFSLNIHPVEEDDVAMYFCQQSRKVPLTFGAGTKLELK
notes: as for B17
B23: binds [3].

B24: 185O18 (antibody, V domains shown)
VH: B23 VH with R19K, S53N, A54Y
VL: B23 VL with Y31D
notes: Chimeric antibody; also called 185018
B24: binds [3].

B25: 174J17 (antibody, V domains shown)
VH: EVQLVESGGGLVKPGGSLKLSCAASGFTLSDYYMYWVRQTPEKRLEWVATISDGGRYTYYPDSVKGRFTISRDIAKNNLYIQMSSLRSEDTAMYYCARGRSTMITTTRNYLALDYWGQGTSVTVSS
VL: DIQMTQSSSSFSVSVGDRVTVTCKASEDIYNRLAWYQQRPGNAPRLLISGATSLETGVPSRFSGSGSGKDYILSITSLQTEDVGTYYCQQYWRTPLTFGEGTKLELK
notes: as for B17
B25: binds [3].

B26: 192E15 (antibody, V domains shown)
VH: EVKLVESGGGLVQPGGSRKLSCAASGFTFSDYGMAWVRQAPGKGPEWVAFISNLAYSIYYADTVTGRFTISRQNAKNTLYLEMSSLRSEDTAMYYCARDRGYDGHSPYYAMDYWGQGTSVTVSS
VL: QAVVTQESALTTSPGETVTLTCRSSTGAVTTSNYANWVQEKPDHLFTGLIGGTSNRPPGVPARFSGSLIGDKAALTITGAQTEDEAIYFCALWYSHHWVFGGGTKLTVL
notes: as for B17
B26: binds [3].

B27: 193D22 (antibody, V domains shown)
VH: EVKLVESGGGLVKPGGSLKLSCAASGFAFSSYDMSWVRQTPEKRLEWVATISNGGSYTYYPDSVKGRFSISRDNARNTLYLQMSSLRSEDTALYYCARHPLYYGNYGWWYFDVWGAGTTVTVSS
VL: DVVMTQTPLSLPVSLGDQASISCRSSQSLVYSNGNTYLYWYLQKPGQSPKLLIYKVSNRFSGVPDRFSGSGSGTDFTLKISRVEAEDLGVYFCSQSTHVPLTFGAGTKLELK
notes: as for B17
B27: binds [3].

B28: 193M7 (antibody, V domains shown)
VH: B27 VH with N53S, G54R, S56T, S69T, D73N, W108Y
VL: B27 VL with Y31H, N33D, T36I
notes: as for B17
B28: binds [3].
